Results published in paper PMC8939794.

Molecular target: His6-Tagged vimentin (Novus Biologicals) (UniProt P08670)
Experiment: MST; His6-vimentin labelled with RED-tris-NTA 2nd Generation dye, kept at 20 nM; V-domain protein titrated from 40 uM to 0.117 uM; premium capillaries, Monolith NT.115 Pico, 20% excitation power; 'estimated' Kd

Sequence of UniProt P08670 (P08670 whole entry): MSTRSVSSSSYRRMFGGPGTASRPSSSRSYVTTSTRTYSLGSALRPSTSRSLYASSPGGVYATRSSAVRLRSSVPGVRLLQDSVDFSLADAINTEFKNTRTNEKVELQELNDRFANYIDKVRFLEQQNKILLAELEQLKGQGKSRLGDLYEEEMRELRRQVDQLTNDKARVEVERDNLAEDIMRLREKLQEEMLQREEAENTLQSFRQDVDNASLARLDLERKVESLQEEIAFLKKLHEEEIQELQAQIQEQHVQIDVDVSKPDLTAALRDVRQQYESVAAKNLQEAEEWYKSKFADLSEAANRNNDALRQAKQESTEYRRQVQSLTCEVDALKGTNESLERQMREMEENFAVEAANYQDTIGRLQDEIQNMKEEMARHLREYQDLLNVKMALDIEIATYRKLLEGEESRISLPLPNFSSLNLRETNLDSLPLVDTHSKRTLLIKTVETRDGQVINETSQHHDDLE

In the case of “BspC V-domain (variable domain of Group B streptococcal surface protein C, strain COH1) (domain or fragment)”, the Kd is reported as 7.14 µM.

Work on “BspC Gating Loop Mutant (GLM) V-domain, A250P/A259P (domain or fragment)” yielded a Kd of 41.9 µM.
